For five molecules, Kd results are on record in US20260284244 (published 2026).

This assay has as its target T1, La/SSB N-terminal domain (La-NTD) (human, UniProt P05455).
T1 chain: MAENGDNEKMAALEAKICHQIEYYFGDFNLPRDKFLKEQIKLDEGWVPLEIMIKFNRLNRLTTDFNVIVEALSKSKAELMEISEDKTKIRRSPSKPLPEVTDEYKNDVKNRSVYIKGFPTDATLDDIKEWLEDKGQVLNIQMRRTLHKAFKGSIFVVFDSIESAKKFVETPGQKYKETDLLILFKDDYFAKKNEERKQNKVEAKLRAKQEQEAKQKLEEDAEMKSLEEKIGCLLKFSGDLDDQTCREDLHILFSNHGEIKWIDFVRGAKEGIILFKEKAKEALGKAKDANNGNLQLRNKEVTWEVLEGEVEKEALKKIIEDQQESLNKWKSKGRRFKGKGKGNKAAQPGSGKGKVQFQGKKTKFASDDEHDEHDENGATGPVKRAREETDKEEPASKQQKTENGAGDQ
Nature of the assay: SPR.

B1: VH3/VK6_K322A (antibody, V domains shown)
VH: EVQLVQSGAEVKKPGASVKVSCKASGYAFTHYYIYWIRQAPGQGLEWMGGVNPSSGGTHYAEKFQGRVTLTVDTSSSTAYMELSSLRSEDTAVYYCTRSEYDYGLGFAYWGQGTLVTVSS
VL: DIVMTQSPLSLPVTPGEPASISCRSSQSLLSSRTPKNYLAWYQQKPGQSPQLLIYWASTRKSGVPDRFSGSGSGTDFTLKISRVEAEDVGVYYCKQSYNLLTFGQGTKLEIK
B1 registered an equilibrium dissociation constant (Kd) of 13.6 nM.

B2: VH6/VK8_K322A (antibody, V domains shown)
VH: EVQLVQSGAEVKKPGASVKVSCKASGYAFTHYYIYWIKQAPGQGLEWIGGVNPSNGGTHFNEKFKSRVTITVDKSASTAYMELSSLRSEDTAVYYCTRSEYDYGLGFAYWGQGTLVTVSS
VL: EIVMTQSPDSLAVSLGERATINCKSSQSLLNSRTPKNYLAWYQQKPGQPPKLLIYWASTRESGVPDRFTGSGSGTDFTLTISSLQAEDVAVYYCKQSYNLLTFGQGTKLEIK
As for B2, the dissociation constant (Kd) turned out to be 14.5 nM.

B3: VH6/VK8_K322A_RadMab (antibody, V domains shown)
VH: EVQLVQSGAEVKKPGASVKVSCKASGYAFTHYYIYWIKQAPGQGLEWIGGVNPSNGGTHFNEKFKSRVTITVDKSASTAYMELSSLRSEDTAVYYCTRSEYDYGLGFAYWGQGTLVTVSS
VL: EIVMTQSPDSLAVSLGERATINCKSSQSLLNSRTPKNYLAWYQQKPGQPPKLLIYWASTRESGVPDRFTGSGSGTDFTLTISSLQAEDVAVYYCKQSYNLLTFGQGTKLEIKR
B3 registered an equilibrium dissociation constant (Kd) of 8.72 nM.

B4: VH3/VK6_K322A_RadMab (antibody, V domains shown)
VH: EVQLVQSGAEVKKPGASVKVSCKASGYAFTHYYIYWIRQAPGQGLEWMGGVNPSSGGTHYAEKFQGRVTLTVDTSSSTAYMELSSLRSEDTAVYYCTRSEYDYGLGFAYWGQGTLVTVSS
VL: DIVMTQSPLSLPVTPGEPASISCRSSQSLLSSRTPKNYLAWYQQKPGQSPQLLIYWASTRKSGVPDRFSGSGSGTDFTLKISRVEAEDVGVYYCKQSYNLLTFGQGTKLEIKR
Take B4: the Kd was found to be 8.27 nM.

B5: chAPOMAB_VH0/VK0_K322A (antibody, V domains shown)
VH: EVQLQQPGAELVKPGASVKLSCKASGYAFTHYYIYWIKQRPGQGLEWIGGVNPSNGGTHFNEKFKSKATLTVDKSSSTAYMQLSSLTSEDSAVYYCTRSEYDYGLGFAYWGQGTLLTVSS
VL: EIVMSQSPSSLAVSAGEKVTMSCKSSQSLLNSRTPKNYLAWYQQKPGQSPKLLIYWASTRKSGVPDRFTGSGSGTDFTLTISSVQAEDLAVYYCKQSYNLLTFGAGTKLEL
B5: binding was put at a Kd of 18.2 nM.
